This note sets out measurements from article PMC8922107.

This assay has as its target Flag-PKM2 from the nuclear fraction of U87 cells (UniProt P14618). The experiment in a line: SEC; Flag-PKM2 eluted with flag peptide in TBS (25 mM Tris, 150 mM NaCl, pH 7.2); Superdex 200 increase 10/300 GL, 4 °C, 0.5 mL/min; fractions analysed by western blot.

Sequence of Flag-PKM2 from the nuclear fraction of U87 cells, P14618 1-531 (enzyme; other documents disagree on this pair) (P14618 whole entry): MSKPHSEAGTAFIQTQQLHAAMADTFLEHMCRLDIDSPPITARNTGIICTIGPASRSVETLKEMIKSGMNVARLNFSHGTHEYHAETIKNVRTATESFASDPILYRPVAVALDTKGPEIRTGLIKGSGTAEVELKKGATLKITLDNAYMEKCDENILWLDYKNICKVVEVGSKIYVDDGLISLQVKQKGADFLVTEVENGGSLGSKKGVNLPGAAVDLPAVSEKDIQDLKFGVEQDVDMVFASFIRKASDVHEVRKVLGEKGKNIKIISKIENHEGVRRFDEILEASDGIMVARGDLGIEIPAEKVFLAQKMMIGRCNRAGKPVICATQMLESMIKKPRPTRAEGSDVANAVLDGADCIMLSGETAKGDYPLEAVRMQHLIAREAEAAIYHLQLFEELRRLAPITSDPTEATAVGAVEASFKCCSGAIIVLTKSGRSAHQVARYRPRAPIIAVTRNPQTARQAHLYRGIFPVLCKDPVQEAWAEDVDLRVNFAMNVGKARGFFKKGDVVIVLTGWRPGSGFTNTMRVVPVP

What is called stoichiometry N is the number of molecules, sites or subunits per partner or assembly. Take “Flag-PKM2 from the nuclear fraction of U87 cells, P14618 1-531 (enzyme; other documents disagree on this pair)”: the stoichiometry N came out at 2.
